{"source": "the nanobody polyreactivity screen of Harvey et al. (2022)", "data": [{"experiment": "yeast display, Sf9 membrane polyspecificity reagent, FACS + sequencing; frameworks hold sequencing errors", "outline": "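Nanobodies came from a synthetic yeast display library in Saccharomyces cerevisiae BJ5465, induced with galactose for 36–48 hours and stained for 1 hour at 4 °C with 10% biotinylated, detergent-solubilized Sf9 membrane reagent. Cells were enriched on streptavidin microbeads and then FACS-sorted, with low and high (top ~1%) gates set on anti-HA fluorescence for expression and streptavidin fluorescence for reagent binding. Each polyreactivity label reflects the gate a clone came from. Genes were amplified by colony PCR, sequenced by MiSeq 2 × 250 and filtered by CDR length.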", "values": [{"sequence": "QVQLVESGGGLVQAGGSLRLSCAASGSINYYAMGWYRQAPGKERELVAAITGSGGSTYYADSVKGRFTISRDNAKNTVYLQMNSLKPEDTAVYYCAARYGYIYGPYYYWGQGTQVTVSS", "polyreactivity (PSR sort gate)": "high polyreactivity"}, {"sequence": "QVQLVESGGGLVQAGGSLRLSCAASGSIFFGYAMGWYRQAPGKERELVAGISSNGGTTYYADSVKGRFTISRDYAKNTVYLQMNSLKPEDTAVYYCAKQYYARGYLYDYWGQGTQVTVSS", "polyreactivity (PSR sort gate)": "low polyreactivity"}, {"sequence": "QVQLVESGGGLVQAGGSLRLSCAASGRTFPSYTMGWYRQAPGKERELVAAITWTGGSTYYADSVKGRFTISRDNAKNTVYLQMNSLKPEDTAVYYCADYDYWGLGTQVTVSS", "polyreactivity (PSR sort gate)": "low polyreactivity"}, {"sequence": "QVQLVESGGRLVQAGGSLRLSCAASGFIFGFYAMGWYRQAPGKELELVAANSWSGGSTYYADSVKGRFTISRDKAKNTVFIQMNSLKPVDTAVYYCAAYFVYLDDAVTYDYWGQGTHVTVSS", "polyreactivity (PSR sort gate)": "low polyreactivity"}, {"sequence": "QVQLVESGGGFVQAGGSLRLSCAASGRNFFSNAMGWYRQAPGNEWELVASITSRGGTTYYADSVKGRFTISSYNAKNPVYLQMNSVKPEDTAVYYCAALRRSYFGYWGQVTQVTVSS", "polyreactivity (PSR sort gate)": "high polyreactivity"}, {"sequence": "QVQLVESGGGLVQAGGSLRLSCAASGRILHGYTMGWYRQAPGKERELVAAITSGGSTYYADSVKGRFTISRDNAKNTVYLQMNSLKPEDTAVYYCAAASYRHEEYYWGQGTQVTVSS", "polyreactivity (PSR sort gate)": "high polyreactivity"}, {"sequence": "QVQLVESGGGLVQAGGSLRLSCAASGSTFLSYAMGWYIQAPGKEREFVAAIPSIVGSTYYADSVKGRFTISRDNAKNTVYLQMNSLKPEDTAVYYCATDSYPGLNPDFDYWGQGTQVTVSS", "polyreactivity (PSR sort gate)": "low polyreactivity"}, {"sequence": "QVQLVESGGGLVQAGGSLRLTCAASGRTFRLYAMGWYRQAPGKERELVAAITRGGRTNYADSVKGRFTISRDNAKNTVYLQMNSLKPEDTAVYYCAARYVDRHTDYYYWGQGTQVTVSS", "polyreactivity (PSR sort gate)": "low polyreactivity"}, {"sequence": "QVHLVESGGGLVQAGGSLRLSCAASGRTFQYNAMGWYRQSPGTERELVAAISWRGARTYYADSVKGRFTISRDYAKNTVYLQMNSLNPEDTAVYYCAAAPYGYRRYEYWGQGTQVTVSS", "polyreactivity (PSR sort gate)": "high polyreactivity"}, {"sequence": "QVQLVESAGGLVQAGGSLRLSCAASGRTFKYYAMGWYRQAPGKERELVAAITSTGGSTYYADSVKGRFTISRDNEKNTVYLQMNSLKPEDTAVYYCNRYTQYRDRSDNHWGQGTHVTVSS", "polyreactivity (PSR sort gate)": "high polyreactivity"}, {"sequence": "QVQLVESGGGLVQAGGSLRLSCAASGIIFKTYTMGWYRTAPGKERELVAAITFSGGSTYYADSVKGRFTISRDNAKNTVYLQMNSLKPEDTAVYYCADTHRFWWYSDDYWGQGTQVTVSS", "polyreactivity (PSR sort gate)": "high polyreactivity"}, {"sequence": "QVQLVESGGGLVQAGGSLRLSCAASGSIFTVYTMGWYRQAPGKVRELVAAINSRGGTTYYADSVKGRFTISRDNAKNTLYLQMNSLKPEDTAVYYCAAKQRPKSYGPGHYYWGQGTQVTVSS", "polyreactivity (PSR sort gate)": "high polyreactivity"}, {"sequence": "QVQVVESGGGLVHAVCSLRLSCAASGRIFSTYALGLYRPAPGKERELVAAISSSGARTYYADSVKGRFTISRDNAKNNVYLQMNSLKPEDTSVYYCAAPPYNRPGYGYDYWGQGTQVTVSS", "polyreactivity (PSR sort gate)": "high polyreactivity"}, {"sequence": "QVQLVESGGGLVQAGGSLRLSCAASGSIFVYYAMGWYRQAPGNERELVAAISKTGGRTYYADSVKGRFTISRDNAKNTVYLQMNSLKPEDSAVYYCAARYTIRYKRYDYWGQGTQVTVSS", "polyreactivity (PSR sort gate)": "high polyreactivity"}, {"sequence": "QVQLVESGGGLVQAGGSLRLSCAASGFTFQYYAMGWYRQAPGKERELVATITTSGGNTYYADSVKGRFTISRDNAKNTVYLQMNSLKPEDTAVYYCAARNARYVHTMEYWGQGTQVTVSS", "polyreactivity (PSR sort gate)": "high polyreactivity"}, {"sequence": "QVQLVESAGGLVQEGGSLRLSCAASVIFWANVMGWYRQAPGKEWELVDAITSGGSTNYADSVKGRFTISRDNAKNTVYLQMNSLKPEDTAVYYCIKPWYSYRYGGVGYGYWGQGTQVTVSS", "polyreactivity (PSR sort gate)": "low polyreactivity"}]}]}
